Test results as given in article PMC3745222.

Molecular target: full-length GST-Smad3 (UniProt P84022)
Test: pull-down

Chain of UniProt P84022 (P84022 whole entry): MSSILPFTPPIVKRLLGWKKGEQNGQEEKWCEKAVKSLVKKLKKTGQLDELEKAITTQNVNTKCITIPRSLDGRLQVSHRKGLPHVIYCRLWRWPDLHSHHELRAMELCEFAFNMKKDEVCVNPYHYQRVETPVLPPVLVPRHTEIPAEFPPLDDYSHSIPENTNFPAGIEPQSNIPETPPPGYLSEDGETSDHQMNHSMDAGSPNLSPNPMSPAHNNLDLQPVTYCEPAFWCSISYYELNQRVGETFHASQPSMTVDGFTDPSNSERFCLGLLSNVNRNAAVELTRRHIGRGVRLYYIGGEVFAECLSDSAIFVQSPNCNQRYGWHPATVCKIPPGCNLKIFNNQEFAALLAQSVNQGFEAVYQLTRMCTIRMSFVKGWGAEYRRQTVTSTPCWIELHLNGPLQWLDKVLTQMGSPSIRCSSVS

“intracellular Notch1 (ICN1), the active form of Notch1 (domain or fragment)” was tested, and the fold increase of binding in β2SP shRNA cells against control cells was 2 fold.
